Experimental data taken from patent US20100273186A1, “SPLIT MUTANT HYDROLASE FUSION REPORTER AND USES THEREOF” (Promega Corporation, priority 2007, published 2010).
Values belong to the substance of their own block, whether it stands above or below them.

Tests used:
Experiment in all cases: cell-based or functional assay
hRL (92-311)-FKBP = hRL (92-311)-FKBP (UniProt P27652)
FKBP-hRL (112-311) = FKBP-hRL (112-311) (UniProt P62942)
hRL (112-311)-FKBP = hRL (112-311)-FKBP (UniProt P27652)
FKBP-hRL (92-311) = FKBP-hRL (92-311) (UniProt P62942)
FKBP-hRL (92-311), sequence (P62942 other isoform, or with tags, fused parts or gaps): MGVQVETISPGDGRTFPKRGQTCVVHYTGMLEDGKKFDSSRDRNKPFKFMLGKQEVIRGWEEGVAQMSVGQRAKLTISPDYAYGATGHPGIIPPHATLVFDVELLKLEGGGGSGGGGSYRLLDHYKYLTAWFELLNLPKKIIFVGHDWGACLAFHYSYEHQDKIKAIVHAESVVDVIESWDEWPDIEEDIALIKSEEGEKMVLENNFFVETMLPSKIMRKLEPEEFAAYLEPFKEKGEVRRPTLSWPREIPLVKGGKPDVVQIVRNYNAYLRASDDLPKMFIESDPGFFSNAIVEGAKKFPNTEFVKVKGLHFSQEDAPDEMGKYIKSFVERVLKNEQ

FKBP-hRL (112-311), sequence (P62942 other isoform, or with tags, fused parts or gaps): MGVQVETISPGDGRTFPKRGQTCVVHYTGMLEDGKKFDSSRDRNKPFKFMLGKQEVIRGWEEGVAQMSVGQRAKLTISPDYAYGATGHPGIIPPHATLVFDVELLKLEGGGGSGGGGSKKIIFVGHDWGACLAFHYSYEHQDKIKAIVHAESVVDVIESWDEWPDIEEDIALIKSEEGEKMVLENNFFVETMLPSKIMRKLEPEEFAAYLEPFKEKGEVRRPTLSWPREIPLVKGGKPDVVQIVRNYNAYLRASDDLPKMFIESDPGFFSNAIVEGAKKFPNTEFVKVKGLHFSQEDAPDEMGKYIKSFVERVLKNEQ
hRL (112-311)-FKBP, sequence (P27652 other isoform, or with tags, fused parts or gaps): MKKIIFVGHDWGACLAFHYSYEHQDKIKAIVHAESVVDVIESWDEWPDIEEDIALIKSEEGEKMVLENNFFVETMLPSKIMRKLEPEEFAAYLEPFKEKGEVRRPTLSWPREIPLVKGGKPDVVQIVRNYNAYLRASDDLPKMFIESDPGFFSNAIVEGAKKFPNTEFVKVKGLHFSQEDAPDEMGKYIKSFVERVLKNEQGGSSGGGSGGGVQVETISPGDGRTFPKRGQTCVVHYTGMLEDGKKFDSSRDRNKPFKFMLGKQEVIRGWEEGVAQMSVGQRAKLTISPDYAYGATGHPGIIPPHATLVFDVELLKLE
hRL (92-311)-FKBP, sequence (P27652 other isoform, or with tags, fused parts or gaps): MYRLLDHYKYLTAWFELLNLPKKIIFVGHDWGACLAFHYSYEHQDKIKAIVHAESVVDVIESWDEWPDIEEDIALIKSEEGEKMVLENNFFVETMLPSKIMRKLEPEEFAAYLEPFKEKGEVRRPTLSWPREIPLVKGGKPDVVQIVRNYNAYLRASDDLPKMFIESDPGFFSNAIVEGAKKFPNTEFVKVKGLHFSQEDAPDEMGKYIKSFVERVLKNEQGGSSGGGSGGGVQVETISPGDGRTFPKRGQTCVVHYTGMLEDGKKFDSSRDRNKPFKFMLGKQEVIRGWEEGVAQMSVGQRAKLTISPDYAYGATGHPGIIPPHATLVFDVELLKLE
hRL (1-111)-FRB, sequence (P27652 other isoform, or with tags, fused parts or gaps): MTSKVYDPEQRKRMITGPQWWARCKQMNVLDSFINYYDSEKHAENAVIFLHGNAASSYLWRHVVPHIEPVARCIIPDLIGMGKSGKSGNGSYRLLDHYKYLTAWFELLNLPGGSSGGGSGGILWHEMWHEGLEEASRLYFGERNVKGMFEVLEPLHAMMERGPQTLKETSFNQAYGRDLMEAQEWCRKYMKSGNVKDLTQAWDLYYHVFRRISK
hRL (1-91)-FRB, sequence (P27652 other isoform, or with tags, fused parts or gaps): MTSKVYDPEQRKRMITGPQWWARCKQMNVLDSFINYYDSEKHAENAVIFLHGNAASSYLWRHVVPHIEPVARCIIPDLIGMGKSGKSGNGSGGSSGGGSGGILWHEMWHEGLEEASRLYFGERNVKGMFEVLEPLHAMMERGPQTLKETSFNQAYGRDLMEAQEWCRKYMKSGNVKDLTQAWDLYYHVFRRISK

Renilla luciferase activity (PCA, TnT lysate) (fold (+rapamycin against no rapamycin)) (hRL (92-311)-FKBP): 134
Substance: FRB-hRL (1-91) (from UniProt P42345 2021-2113; P27652 1-91)

Renilla luciferase activity (PCA, TnT lysate) (fold (+rapamycin against no rapamycin)) (FKBP-hRL (112-311)): 81
Substance: hRL (1-111)-FRB (from UniProt P27652 1-111; P42345 2021-2113)

Renilla luciferase activity (PCA, TnT lysate) (fold (+rapamycin against no rapamycin)) (FKBP-hRL (112-311)): 5.3 | Renilla luciferase activity (PCA, TnT lysate) (fold (+rapamycin against no rapamycin)) (hRL (112-311)-FKBP): 46
Substance: FRB-hRL (1-111) (from UniProt P42345 2021-2113; P27652 1-111)

Renilla luciferase activity (PCA, TnT lysate) (fold (+rapamycin against no rapamycin)) (FKBP-hRL (92-311)): 8.6
Substance: hRL (1-91)-FRB (from UniProt P27652 1-91; P42345 2021-2113)
